Assay results taken from patent US20250283871A1, “COMPOSITIONS AND METHODS FOR MODULATING THE INTERACTION BETWEEN SS18-SSX FUSION ONCOPROTEIN AND NUCLEOSOMES” (Dana-Farber Cancer Institute, Inc., priority 2020, published 2025).
pEC50: −log10 of the molar value. Values joined by “and” are separate entries in the source; they are usually repeats but may differ in a detail not shown here. Equal entries are not always repeated.

Legend:
[1] = target: recombinant H2A K119Ub mononucleosomes (UniProt P04908); assay: AlphaLISA; 95% CI 7.2-48.5
[2] = target: cellular chromatin (endogenous nucleosomes; core histones H2A, H2B, H3, H4) (human) (UniProt P0C0S8); assay: differential salt extraction, immunoblot
[3] = target: mammalian mononucleosomes (HEK293T) carrying H3K4ac1 (mammalian (HEK293T)) (UniProt P68431); assay: MBP-SSX1 78aa pull-down, targeted histone MS
[4] = target: mammalian mononucleosomes (HEK293T) carrying H4(4to17)K5ac1K8ac1me0 (mammalian (HEK293T)) (UniProt P62805); assay: MBP-SSX1 78aa pull-down, targeted histone MS
[5] = target: mammalian mononucleosomes (HEK293T) carrying H3K9me3S10ph1K14ac0 (mammalian (HEK293T)) (UniProt P68431); assay: MBP-SSX1 78aa pull-down, targeted histone MS
[6] = target: mammalian mononucleosomes (HEK293T) carrying H4(4to17)K16ac1me0 (mammalian (HEK293T)) (UniProt P62805); assay: MBP-SSX1 78aa pull-down, targeted histone MS
[7] = target: mammalian mononucleosomes (HEK293T) carrying H3K4me1 (mammalian (HEK293T)) (UniProt P68431); assay: MBP-SSX1 78aa pull-down, targeted histone MS
[8] = target: mammalian mononucleosomes (HEK293T) carrying H4(20to23)K20me3 (mammalian (HEK293T)) (UniProt P62805); assay: MBP-SSX1 78aa pull-down, targeted histone MS
[9] = target: mammalian mononucleosomes (HEK293T) carrying H2A(12to17)K15ac1 (mammalian (HEK293T)) (UniProt P0C0S8); assay: MBP-SSX1 78aa pull-down, targeted histone MS
[10] = target: mammalian mononucleosomes (HEK293T) carrying H2A(4to11)ac0 (mammalian (HEK293T)) (UniProt P0C0S8); assay: MBP-SSX1 78aa pull-down, targeted histone MS
[11] = target: mammalian mononucleosomes (HEK293T) carrying H4(20to23)K20me0 (mammalian (HEK293T)) (UniProt P62805); assay: MBP-SSX1 78aa pull-down, targeted histone MS
[12] = target: mammalian mononucleosomes (HEK293T) carrying H3K9me1S10ph1K14ac1 (mammalian (HEK293T)) (UniProt P68431); assay: MBP-SSX1 78aa pull-down, targeted histone MS
[13] = target: mammalian mononucleosomes (HEK293T) carrying H4(4to17)K8ac1K12ac1K16ac1me0 (mammalian (HEK293T)) (UniProt P62805); assay: MBP-SSX1 78aa pull-down, targeted histone MS
[14] = target: mammalian mononucleosomes (HEK293T) carrying H4(20to23)K20me2 (mammalian (HEK293T)) (UniProt P62805); assay: MBP-SSX1 78aa pull-down, targeted histone MS
[15] = target: mammalian mononucleosomes (HEK293T) carrying H2A(4to11)K5ac1K9ac1 (mammalian (HEK293T)) (UniProt P0C0S8); assay: MBP-SSX1 78aa pull-down, targeted histone MS
[16] = target: mammalian mononucleosomes (HEK293T) carrying H2A(4to11)K5ac1 (mammalian (HEK293T)) (UniProt P0C0S8); assay: MBP-SSX1 78aa pull-down, targeted histone MS
[17] = target: mammalian mononucleosomes (HEK293T) carrying H4(4to17)K8ac1K12ac1me0 (mammalian (HEK293T)) (UniProt P62805); assay: MBP-SSX1 78aa pull-down, targeted histone MS
[18] = target: mammalian mononucleosomes (HEK293T) carrying H2A(12to17)ac0 (mammalian (HEK293T)) (UniProt P0C0S8); assay: MBP-SSX1 78aa pull-down, targeted histone MS
[19] = target: mammalian mononucleosomes (HEK293T) carrying H2B(1to29)K5ac1 (mammalian (HEK293T)) (UniProt P62807); assay: MBP-SSX1 78aa pull-down, targeted histone MS
[20] = target: mammalian mononucleosomes (HEK293T) carrying H4(4to17)K5ac1K8ac1K12ac1me0 (mammalian (HEK293T)) (UniProt P62805); assay: MBP-SSX1 78aa pull-down, targeted histone MS
[21] = target: mammalian mononucleosomes (HEK293T) carrying H2A(4to11)K9ac1 (mammalian (HEK293T)) (UniProt P0C0S8); assay: MBP-SSX1 78aa pull-down, targeted histone MS
[22] = target: mammalian mononucleosomes (HEK293T) carrying H2A(12to17)K13ac1 (mammalian (HEK293T)) (UniProt P0C0S8); assay: MBP-SSX1 78aa pull-down, targeted histone MS
[23] = target: mammalian mononucleosomes (HEK293T) carrying H4(4to17)K5ac1me0 (mammalian (HEK293T)) (UniProt P62805); assay: MBP-SSX1 78aa pull-down, targeted histone MS
[24] = target: mammalian mononucleosomes (HEK293T) carrying H4(4to17)K5ac1K8ac1K12ac1K16ac1me0 (mammalian (HEK293T)) (UniProt P62805); assay: MBP-SSX1 78aa pull-down, targeted histone MS
[25] = target: mammalian mononucleosomes (HEK293T) carrying H4(20to23)K20me1 (mammalian (HEK293T)) (UniProt P62805); assay: MBP-SSX1 78aa pull-down, targeted histone MS
[26] = target: mammalian mononucleosomes (HEK293T) carrying H4(4to17)K12ac1K16ac1me0 (mammalian (HEK293T)) (UniProt P62805); assay: MBP-SSX1 78aa pull-down, targeted histone MS
[27] = target: mammalian mononucleosomes (HEK293T) carrying H4(4to17)ac0me0 (mammalian (HEK293T)) (UniProt P62805); assay: MBP-SSX1 78aa pull-down, targeted histone MS
[28] = target: mammalian mononucleosomes (HEK293T) carrying H4(4to17)K5ac1K16ac1me0 (mammalian (HEK293T)) (UniProt P62805); assay: MBP-SSX1 78aa pull-down, targeted histone MS
[29] = target: mammalian mononucleosomes (HEK293T) carrying H3K9me2S10ph1K14ac1 (mammalian (HEK293T)) (UniProt P68431); assay: MBP-SSX1 78aa pull-down, targeted histone MS
[30] = target: mammalian mononucleosomes (HEK293T) carrying H4(4to17)K5ac1K8ac1K16ac1me0 (mammalian (HEK293T)) (UniProt P62805); assay: MBP-SSX1 78aa pull-down, targeted histone MS
[31] = target: mammalian mononucleosomes (HEK293T) carrying H3K4me2 (mammalian (HEK293T)) (UniProt P68431); assay: MBP-SSX1 78aa pull-down, targeted histone MS
[32] = target: mammalian mononucleosomes (HEK293T) carrying H4(4to17)K12ac1me0 (mammalian (HEK293T)) (UniProt P62805); assay: MBP-SSX1 78aa pull-down, targeted histone MS
[33] = target: mammalian mononucleosomes (HEK293T) carrying H2AZ(1to19)K4ac1 (mammalian (HEK293T)) (UniProt P0C0S5); assay: MBP-SSX1 78aa pull-down, targeted histone MS
[34] = target: mammalian mononucleosomes (HEK293T) carrying H3K9me2S10ph1K14ac0 (mammalian (HEK293T)) (UniProt P68431); assay: MBP-SSX1 78aa pull-down, targeted histone MS
[35] = target: mammalian mononucleosomes (HEK293T) carrying H2AZ(1to19)ac0 (mammalian (HEK293T)) (UniProt P0C0S5); assay: MBP-SSX1 78aa pull-down, targeted histone MS
[36] = target: mammalian mononucleosomes (HEK293T) carrying H3K4me3 (mammalian (HEK293T)) (UniProt P68431); assay: MBP-SSX1 78aa pull-down, targeted histone MS
[37] = target: cellular chromatin (endogenous nucleosomes; core histones H2A, H2B, H3, H4) (human) (UniProt P0C0S8); assay: cell-based or functional assay
[38] = target: KCNMA1 (tr|A0A1W2PP06|A0A1W2PP06_HUMAN) (human) (UniProt Q12791); assay: HA affinity purification from HEK-293T nuclear extract, mass spectrometry peptide counts
[39] = target: LPGAT1 (sp|Q92604|LGAT1_HUMAN) (human) (UniProt Q92604); assay: as above
[40] = target: LZIC (sp|Q8WZA0|LZIC_HUMAN) (human) (UniProt Q8WZA0); assay: as above
[41] = target: mammalian mononucleosome (HEK293T) carrying histone H3 K79me2 (human (HEK-293T cells)) (UniProt P68431); assay: MBP-SSX1 78aa pull-down of pooled HEK293T mononucleosomes, targeted quantitative histone MS; input c3-c5: 0.498, 0.469, 0.455
[42] = target: mammalian mononucleosome (HEK293T) carrying histone H3 K79me1 (human (HEK-293T cells)) (UniProt P68431); assay: MBP-SSX1 78aa pull-down of pooled HEK293T mononucleosomes, targeted quantitative histone MS; input c3-c5: 0.268, 0.441, 0.301
[43] = target: recombinant, unmodified mononucleosomes (UniProt P04908); assay: AlphaLISA; 95% CI 9.1-53.3
[44] = target: recombinant H2A K119Ub mononucleosomes (UniProt P04908); assay: AlphaLISA; 95% CI 2.3-9.1
[45] = target: TSP1_HUMAN Thrombospondin-1 (human) (UniProt P07996); assay: anti-SMARCA4 (BRG1) IP, mass spectrometry, human fibroblasts

GST-SSXdel7aa (acidic C-term DPEEDDE-->AAAAAAA) (from UniProt Q16384 111-181)
pEC50 [1]: 7.73

SS18-SSX-bound BAF complexes (HA-SS18-SSX1 purification)
NaCl concentration of elution from chromatin [2]: > 1 M

MBP-SSX1 78aa protein (from UniProt Q16384 111-188)
log2norm (Light/Heavy) intensity ratio [3]: 0.263 log2 and 0.32 log2
log2norm (Light/Heavy) intensity ratio [4]: 0.107 log2 and 0.094 log2
log2norm (Light/Heavy) intensity ratio [5]: -0.566 log2 and -1.03 log2
log2norm (Light/Heavy) intensity ratio [6]: -0.391 log2 and -0.337 log2
log2norm (Light/Heavy) intensity ratio [7]: 0.74 log2 and 0.353 log2
log2norm (Light/Heavy) intensity ratio [8]: -0.109 log2 and 0.055 log2
log2norm (Light/Heavy) intensity ratio [9]: 0.042 log2 and -0.086 log2
log2norm (Light/Heavy) intensity ratio [10]: -0.026 log2 and 0.061 log2
log2norm (Light/Heavy) intensity ratio [11]: 0.017 log2 and 0.092 log2
log2norm (Light/Heavy) intensity ratio [12]: -2.67 log2 and -2.51 log2
log2norm (Light/Heavy) intensity ratio [13]: 0.677 log2 and 0.625 log2
log2norm (Light/Heavy) intensity ratio [14]: -0.414 log2 and -0.391 log2
log2norm (Light/Heavy) intensity ratio [15]: -0.031 log2 and -0.049 log2
log2norm (Light/Heavy) intensity ratio [16]: 0.569 log2 and 0.624 log2
log2norm (Light/Heavy) intensity ratio [17]: -0.198 log2 and -0.093 log2
log2norm (Light/Heavy) intensity ratio [18]: 0.201 log2 and -0.12 log2
log2norm (Light/Heavy) intensity ratio [19]: 0.273 log2 and 0.323 log2
log2norm (Light/Heavy) intensity ratio [20]: -0.223 log2 and -0.27 log2
log2norm (Light/Heavy) intensity ratio [21]: -0.254 log2 and -0.375 log2
log2norm (Light/Heavy) intensity ratio [22]: 0.032 log2 and -0.047 log2
log2norm (Light/Heavy) intensity ratio [23]: -0.053 log2 and 0.075 log2
log2norm (Light/Heavy) intensity ratio [24]: 0.276 log2 and 0.245 log2
log2norm (Light/Heavy) intensity ratio [25]: -0.427 log2 and -0.443 log2
log2norm (Light/Heavy) intensity ratio [26]: 0.204 log2 and 0.304 log2
log2norm (Light/Heavy) intensity ratio [27]: -0.613 log2 and -0.573 log2
log2norm (Light/Heavy) intensity ratio [28]: 0.226 log2 and 0.367 log2
log2norm (Light/Heavy) intensity ratio [29]: -0.87 log2 and -1.01 log2
log2norm (Light/Heavy) intensity ratio [30]: 0.474 log2 and 0.311 log2
log2norm (Light/Heavy) intensity ratio [31]: 0.778 log2 and 0.532 log2
log2norm (Light/Heavy) intensity ratio [32]: -0.207 log2 and -0.275 log2
log2norm (Light/Heavy) intensity ratio [33]: -0.217 log2 and 0.048 log2
log2norm (Light/Heavy) intensity ratio [34]: -0.683 log2 and -1.09 log2
log2norm (Light/Heavy) intensity ratio [35]: -0.784 log2 and -0.697 log2
log2norm (Light/Heavy) intensity ratio [36]: 0.766 log2 and 0.505 log2

GFP-SS18-SSX1
FRAP recovery half-time [37]: 33.9 s

HA-SS18 WT (from UniProt Q15532 1-387)
Total peptides [38]: 1 peptides
Unique peptides [38]: 1 peptides
Total peptides [39]: 1 peptides
Unique peptides [39]: 1 peptides
Total peptides [40]: 1 peptides
Unique peptides [40]: 1 peptides

MBP-SSX1 78aa (from UniProt Q16384 111-188)
log2norm (Light/Heavy) intensity ratio normalized to histone norm peptide [41]: 0.826 log2 and 0.557 log2
log2norm (Light/Heavy) intensity ratio normalized to histone norm peptide [42]: 0.954 log2 and 0.54 log2

GST-SSX1 (78aa) (from UniProt Q16384 111-188)
pEC50 [43]: 7.66
pEC50 [44]: 8.34

GFP-SS18 WT (from UniProt Q15532 2-418)
FRAP recovery half-time [37]: 10.1 s

wild-type SS18-bound BAF complexes (HA-SS18 WT purification) (from UniProt Q15532 1-387)
NaCl concentration of elution from chromatin [2]: 0.3 to 0.5 M

SMCA4_HUMAN Transcription activator BRG1 (from UniProt P51532 1-1647)
NSAF [45]: 0.000217
